Residue numbers refer to the chain shown, from its start.
Experiments:
O=C(O)CNCP(=O)(O)O = test: Standard spectrophotometric kcat and KM determination (Example 7); type: biochemical; settings: other: 20 mM HEPES pH 6.8, 10% ethylene glycol, 0.2 mM acetyl CoA, about 23° C.
Protocol: KM was calculated from the initial reaction rates obtained from concentrations of glyphosate ranging from 0.125 to 10 mM, using the Lineweaver-Burke transformation of the Michaelis-Menten equation. kcat/KM was determined by dividing the value determined for kcat by the value determined for KM.

soybean plants = test: T0 soybean greenhouse glyphosate spray, plant discoloration scores; type: in vivo
Protocol: Soybean plants expressing GAT variant transgenes were produced using the method of particle gun bombardment (see Klein et al. (1987) Nature 327:70-73) using a DuPont Biolistic PDS1000/He instrument. The selection agent used during the transformation process was hygromycin. Either the hygromycin selectable marker gene remained in the transgenic events or the hygromycin gene was excised by methods known in the art. DNA fragments were prepared with a synthetic constitutive promoter, a GAT variant and PinII terminator. The selectable marker gene, comprising the 35S CaMV promoter, HPT gene and NOS terminator, was cobombarded with the GAT gene variant as described above. Bombarded soybean embryogenic suspension tissue was cultured for one week in the absence of selection agent. Embryogenic suspension tissue was placed in liquid selection medium for 6 weeks. Putative transgenic suspension tissue was sampled for PCR analysis to determine the presence of the GAT gene. Putative transgenic suspension culture tissue was maintained in selection medium for 3 weeks to obtain enough tissue for plant regeneration. Suspension tissue was matured for 4 weeks using standard procedures; matured somatic embryos were desiccated for 4-7 days and then placed on germination induction medium for 2-4 weeks. Germinated plantlets were transferred to soil in cell pack trays for 3 weeks for acclimatization. Plantlets were potted to 10-inch pots in the greenhouse for evaluation of glyphosate resistance.
To determine the level of glyphosate resistance of transgenic soybeans expressing the GAT variant transgenes, T0 plants were sprayed with glyphosate (Roundup ULTRA MAX™) in the greenhouse. Plant resistance levels were evaluated by […] • 7=minor leaf/stem discoloration • 5=worse leaf/stem discoloration • 3=severely discolored plant or dying plant • 1=dead plant
One to four plants were sent to the greenhouse from each independent transgenic event. An additional 1-2 plants per event were grown in controlled environment growth chambers for seed production and were not sprayed with glyphosate. The greenhouse plants were sprayed at 1×, 2× or 4× glyphosate (1× glyphosate=26 ounces/acre of RoundUp ULTRA MAX™) 3-4 weeks after transfer to soil. The T0 plant discoloration scores with 2× and 4× spray rates are shown in Table 10 and Table 11, respectively.

[1] = type: physicochemical; settings: buffer, pH 7.2
Protocol: The half lives of several GAT polypeptides were also measured at 37.5° C. according to the following procedure. GAT polypeptides 401 (SEQ ID NO: 6), 17-15H3 (SEQ ID NO: 601), 20-8H12 (SEQ ID NO: 739), 22-13B12 (SEQ ID NO: 781), 22-15B4 (SEQ ID NO: 946) and 22-18C5 (SEQ ID NO: 795) were incubated in a matrix of 25 mM Hepes, pH 7.2, 10 mM KCl and 10% methanol (“HKM”). At various timepoints, aliquots were withdrawn and assayed in triplicate at 22° C. using the continuous spectrophotometric assay described in Example 7 using saturating concentrations of glyphosate (20 mM for 401, 5 mM for the rest) and AcCoA (167 uM). The standard error at each time point averaged about 2.9%. GAT activity was plotted as a function of incubation time and the data was fitted to a curve for exponential decay (y=e^−x), where y is enzyme activity and x is time in hours, from which half life was calculated.

[2] = GAT activity with substrate L-aspartate (DTNB); type: biochemical
Protocol: (§1) GAT activity of several GAT polypeptides of the present invention was evaluated with respect to a number of amino acid substrates. The GAT polypeptide, AcCoA and amino substrate were incubated in 25 mM Hepes, pH 6.8, 10% ethylene glycol in the wells of a 96-well polystyrene plate. After 30 minutes, the reactions were stopped by the addition of 30 μl of 10 mM 5,5′-dithiobis-2-nitrobenzoate (DTNB) in 500 mM Tris, pH 7.5. After 2 minutes, absorbance was read at 412 nm in a Spectramax Plus plate reader (Molecular Devices, Sunnyvale, Calif.).

[3] = GAT activity with substrate L-serine (DTNB); type: biochemical
Protocol: as §1

[4] = GAT activity with other L-amino acid substrates (DTNB); type: biochemical
Protocol: as §1

tobacco plants = test: Herbicide spray tests of GAT expressing tobacco plants; type: in vivo, Nicotiana tabacum
Protocol: Tobacco shoots generated as described in EXAMPLE 9 were excised from the explants and transferred to basal root induction (BRI) medium composed of half-strength Murashige and Skoog (MS) medium, pH 5.7, with 1.5% sucrose, 0.3% Gelrite, 0-200 uM glyphosate and 400 ug/ml Timentin. Rooted plants and axillary shoots were clonally propagated by cutting the stem and transferring it to fresh BRI medium until the desired number of clones was obtained. Rooted plants were carefully removed from the solid medium. Prior to placing the plants into small pots of soil, the roots were washed to remove any remaining Gelrite. A protective plastic cover was kept over the plants for at least one week until the plants were well established.
To determine if GAT expressing tobacco plants could tolerate simulated field rate sprays of glyphosate, clonal lines of several events per GAT variant were tested. A typical test was set up as follows: One clone from each event was sprayed with 1 ml of solution containing the isopropylamine salt of glyphosate (Sigma P5671) and 0.125% Triton X-100, pH 6.8 such that the amount of active ingredient sprayed was equivalent to that present in commercial glyphosate products. For example, to achieve 32 oz/acre (1×) of herbicide containing 40% active ingredient (“ai”), 2.4 ul of 40% ai formulation was diluted into 1 ml water and sprayed on a plant in a 4-inch square pot (16 in^2). A mock application (0×) with surfactant only was also included. In some cases a second spray was applied 1-4 weeks later. Plants were kept in controlled growth rooms at 25° C. and 70% humidity with 16 hr light.
Seed-grown wild type plants were also sprayed. […] All 0× plants were healthy, including the non-GAT control plants. Three weeks later all of the surviving plants were sprayed with an 8× dose.

[5] = 10 days after 2X glyphosate (1× = 26 ounces/acre)

## GAT polypeptide (glyphosate-N-acetyltransferase), SEQ ID NO:457 (Bacillus licheniformis DSM 13 = ATCC 14580; A28V/E119K/E65Q/E67Q/E68K/G37R/I132T/I135V/I15L/I2L/K101R/K144R/K58Q/L145I/L97I/R18K/R92K/T89S/V114A/Y130F/Y45F)
O=C(O)CNCP(=O)(O)O
  Km: 100 µM
  kcat: 1.97 s⁻¹

## GAT polypeptide (glyphosate-N-acetyltransferase), SEQ ID NO:300 (Bacillus licheniformis DSM 13 = ATCC 14580; A39T/E119K/E67Q/E68K/H57N/I132T/I135V/K58Q/L35S/S62P/V114A)
O=C(O)CNCP(=O)(O)O
  Km: 650 µM
  kcat: 4.93 s⁻¹

B1: 18-28D9c: GAT transgene, SEQ ID NO:824 (nucleic acid)
DNA: ATGATAGAGGTGAAACCGATTAACGCAGAGGATACCTATGAACTAAGGCATAGAATACTCAGACCAAACCAGCCGATAGAAGCGTGTATGTTTGAAAGCGATTTACTTCGTGGTGCATTTCACTTAGGCGGCTTTTACAGGGGCAAACTGATTTCCATAGCTTCATTCCACCAGGCCGAGCACTCGGAACTCCAAGGCCAGAAACAGTACCAGCTCCGAGGTATGGCTACCTTGGAAGGTTATCGTGAGCAGAAAGCGGGATCAACTCTAGTTAAACACGCTGAAGAAATCCTTCGTAAGAGGGGGGCGGACATGCTTTGGTGTAATGCGAGGACATCCGCCTCAGGCTACTACAAAAAGTTAGGCTTCAGCGAGCAGGGAGAGATATTTGACACGCCGCCAGTAGGACCTCACATCCTGATGTATAAAAGGATCACATAA
modifications: Synthetic nucleic acid sequence; CDS (1)...(441); 18-28D9c
Soybean plants; 10 days after 2X glyphosate
  % EVENTS @ 3-6: 74% (23)
Soybean plants; [5]
  % EVENTS @ 7-8: 8% (3)
Soybean plants; 10 days after 4X glyphosate
  % EVENTS @ 3-6: 43% (10)
  % EVENTS @ 7-8: 8% (2)

B2: 401: native GAT polypeptide corresponding to SEQ ID NO: 6 (protein, listed as Bacillus licheniformis)
chain: MIEVKPINAEDTYEIRHRILRPNQPLEACMYETDLLGGAFHLGGYYRGKLISIASFHKAEHSELEGEEQYQLRGMATLEGYREQKAGSTLIRHAEELLRKKGADLLWCNARTSVSGYYEKLGFSEQGEVYDIPPIGPHILMYKKLT
modifications: ST401 GAT
[1]
  Half-life: 14 h
[2]
  activity with L-aspartate compared with glyphosate: about as active
[2]; Substrate Aspartate
  kcat/KM % of glyph: 85.5%
[3]
  activity with L-serine compared with glyphosate: about 4.7 times
[3]; Substrate Serine
  kcat/KM % of glyph: 471%
[4]
  number of amino acids with detectable activity, in addition to glyphosate: 12
[4]; L-alanine, 1 mM
  activity relative to activity towards glyphosate: 33%
[4]; L-asparagine, 1 mM
  activity relative to activity towards glyphosate: 27%
[4]; L-cysteine, 1 mM
  activity relative to activity towards glyphosate: 50%
[4]; L-glutamate, 1 mM
  activity relative to activity towards glyphosate: 51%
[4]; L-glutamine, 1 mM
  activity relative to activity towards glyphosate: 32%
[4]; L-histidine, 1 mM
  activity relative to activity towards glyphosate: 10%
[4]; L-threonine, 1 mM
  activity relative to activity towards glyphosate: 250%
[4]; L-tyrosine, 1 mM
  activity relative to activity towards glyphosate: 18%
[4]; L-valine, 1 mM
  activity relative to activity towards glyphosate: 12%
[4]; N-methyl derivatives of L-aspartate (2 mM), L-alanine (10 mM) and glycine (sarcosine, 10 mM)
  activity on N-methyl derivatives of amino acids: No detectable activity
[4]; glycine, 1 mM
  activity relative to activity towards glyphosate: 21%
[4]; the other protein amino acids, either undetected or less than 3%
  activity relative to activity towards glyphosate: less than 3%

B3: 22-13B12: GAT polypeptide, SEQ ID NO: 781 (protein)
chain: MIEVKPINAEDTYDLRHRVLRPNQPIEACMFESDLMRGAFHLGGFYGGKLISVASFHQAEHSELQGQKQYQLRGMATLEGYREQKAGSSLVKHAEEILRKRGADILWCNARTSASGYYRKLGFSEQGEVFDTPPVGPHILMYKRIT
modifications: D_S00397672_22-13B12
[1]
  Half-life: 67 h

B4: 22-18C5: GAT polypeptide, SEQ ID NO: 795 (protein)
chain: B3 chain with M36T, M75V, S88T, A103V, I105L
modifications: D_S00398097_GAT22-18C5
[1]
  Half-life: 43 h

B5: 22-15B4: GAT enzyme SEQ ID NO:789; Table 9 prints SEQ ID NO: 946 (protein)
chain: B3 chain with E32D, G38S, S62T, M75V, A103V, I105L, R119K
modifications: D_S00397832_GAT22-15B4
[1]
  Half-life: 26 h

B6: 20-8H12: evolved GAT; polypeptide SEQ ID NO:739, gene SEQ ID NO:738 (protein)
chain: B3 chain with D14E, M30I, K49R, I105L, R119K
modifications: D_S00341806_GAT20-8H12
[1]
  Half-life: 54 h

B7: 0—5D3: evolved GAT gene, SEQ ID NO:193 (nucleic acid)
DNA: ATGCTAGAGGTGAAACCGATTAACGCAGAGGATACCTATGAACTAAGGCATAGAATACTCAGACCAAACCAGCCGATAGAAGCGTGTATGTATGAAAGCGATTTACTTCGTGGTGCATTTCACTTAGGCGGCTATTACAGGGGCAAACTGATTTCCATAGCTTCATTCCACCAGGCCGAGCACTCAGAACTCCAAGGCCAGAAACAGTACCAGCTCCGAGGTATGGCTACCTTGGAAGGTTATCGTGAGCAGAAAGCGGGATCGAGTCTAATTAAACACGCTGAAGAAATTCTTCGTAAGAGGGGGGCGGACTTGCTTTGGTGTAATGCGCGGACATCCGCCTCAGGCTACTACAAAAAGTTAGGCTTCAGCGAGCAGGGAGAGATATTTGAAACGCCGCCAGTAGGACCTCACATCCTGATGTATAAAAGGATCACATAA
modifications: Synthetic nucleic acid sequence; 0_5D3
Tobacco plants; 0.5, 2 or 4× glyphosate (1× = 32 oz/acre of 40% ai), clonally propagated events, average of 5 leaves
  outcome two weeks after glyphosate spray: survived the spraying procedure without signs of glyphosate damage
Tobacco plants; 8× glyphosate three weeks later
  outcome after second spray with an 8× dose: survived
Soybean plants; 10 days after 2X glyphosate
  % EVENTS @ 3-6: 11% (3)
Soybean plants; [5]
  % EVENTS @ 7-8: 15% (4)
